Experimental data reported in patent US20240415930A1, “COMPOSITIONS AND METHODS FOR ENHANCING BRAIN PERFUSION” (Washington University, priority 2021, published 2024).
Entries after “also recorded” stand apart in the source; their conditions may differ.

Tested on: perivascular macrophages (PVMs)
Assay: M-CSF treatment of aged mice: OVA tracer diffusion/coverage (CSF flow)
Type: in vivo
Description: FIG. 3U is a schematic diagram summarizing an experimental design to determine the effect of M-CSF treatment on CSF flow in aged mice.
FIG. 7D is a schematic diagram summarizing an experimental design wherein old mice were treated with M-CSF (or aCSF as a control group). Six hours after treatment, mice received OVA via ICM injection, and brains were harvested one hour after OVA diffusion.
First, it was observed that tracer diffusion in aged mice (24-month-old) was impaired compared to young/adult mice (3-month-old) (FIGS. 7A, 7B, 7C, 7D, 7E, and 7F).

B1: macrophage colony stimulating factor (protein, UniProt P07141 33-552, looked up)
Macrophage colony-stimulating …: KEVSEHCSHMIGNGHLKVLQQLIDSQMETSCQIAFEFVDQEQLDDPVCYLKKAFFLVQDIIDETMRFKDNTPNANATERLQELSNNLNSCFTKDYEEQNKACVRTFHETPLQLLEKIKNFFNETKNLLEKDWNIFTKNCNNSFAKCSSRDVVTKPDCNCLYPKATPSSDPASASPHQPPAPSMAPLAGLAWDDSQRTEGSSLLPSELPLRIEDPGSAKQRPPRSTCQTLESTEQPNHGDRLTEDSQPHPSAGGPVPGVEDILESSLGTNWVLEEASGEASEGFLTQEAKFSPSTPVGGSIQAETDRPRALSASPFPKSTEDQKPVDITDRPLTEVNPMRPIGQTQNNTPEKTDGTSTLREDHQEPGSPHIATPNPQRVSNSATPVAQLLLPKSHSWGIVLPLGELEGKRSTRDRRSPAELEGGSASEGAARPVARFNSIPLTDTGHVEQHEGSSDPQIPESVFHLLVPGIILVLLTVGGLLFYKWKWRSHRDPQTLDSSVGRPEDSSLTQDEDRQVELPV
OVA tracer diffusion/coverage through the brain (aged (24-month-old) mice, OVA ICM six hours after ICM M-CSF, brains harvested one hour later, vs aCSF): improved tracer diffusion through the brain tissue; also recorded: increase in OVA diffusion/coverage compared to aCSF-treated mice; also recorded: improved perfusion of the brains in older mice | state of perivascular macrophages (older mice, ICM injection): rejuvenated the perivascular macrophages
